In PMC5941315:

Target: MMP9 full length (UniProt P14780 20-707)
Assay: fluorescence polarization

Chain of MMP9 full length (P14780 20-707): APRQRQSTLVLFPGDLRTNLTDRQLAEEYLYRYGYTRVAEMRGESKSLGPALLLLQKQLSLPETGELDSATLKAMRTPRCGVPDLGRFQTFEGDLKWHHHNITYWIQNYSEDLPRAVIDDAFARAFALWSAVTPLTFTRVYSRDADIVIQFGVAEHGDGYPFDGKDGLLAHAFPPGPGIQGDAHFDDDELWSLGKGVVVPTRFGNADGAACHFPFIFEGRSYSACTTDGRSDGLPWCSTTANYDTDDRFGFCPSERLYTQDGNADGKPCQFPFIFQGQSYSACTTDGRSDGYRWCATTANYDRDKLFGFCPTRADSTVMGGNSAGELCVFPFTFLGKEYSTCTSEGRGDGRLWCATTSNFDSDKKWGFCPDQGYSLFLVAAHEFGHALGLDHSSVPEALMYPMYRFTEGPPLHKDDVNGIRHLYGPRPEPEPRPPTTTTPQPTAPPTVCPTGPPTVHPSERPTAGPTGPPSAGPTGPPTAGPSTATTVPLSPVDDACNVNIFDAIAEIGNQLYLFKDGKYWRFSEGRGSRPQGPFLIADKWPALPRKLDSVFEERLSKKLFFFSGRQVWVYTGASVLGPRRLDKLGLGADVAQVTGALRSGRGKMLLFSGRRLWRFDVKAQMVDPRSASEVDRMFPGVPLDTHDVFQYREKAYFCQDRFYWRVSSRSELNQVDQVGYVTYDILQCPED

Question: Does ACGCCAATAACGCTATTCGAGCTCGAGACGGCGCGATCTC (ssDNA) [Scrambled 40-mer] bind?
Answer: Result: binds
